Laboratory results: patent US12187807B2, “Antibody molecules to C5AR1 and uses thereof” (Visterra, Inc., priority 2020, dated 2025)

Key:
[1] = target: T1, C5aR1 mutants (N-terminus, ECL1, ECL2, ECL3) (Homo sapiens, UniProt P21730, G12E/K279N); test: Alanine scanning / mutagenesis epitope mapping of C5aR1; assay type: binding; settings: G12E (as in cyno and rhesus)
T1 sequence (P21730 with tags, fused parts or gaps G12E/K279N): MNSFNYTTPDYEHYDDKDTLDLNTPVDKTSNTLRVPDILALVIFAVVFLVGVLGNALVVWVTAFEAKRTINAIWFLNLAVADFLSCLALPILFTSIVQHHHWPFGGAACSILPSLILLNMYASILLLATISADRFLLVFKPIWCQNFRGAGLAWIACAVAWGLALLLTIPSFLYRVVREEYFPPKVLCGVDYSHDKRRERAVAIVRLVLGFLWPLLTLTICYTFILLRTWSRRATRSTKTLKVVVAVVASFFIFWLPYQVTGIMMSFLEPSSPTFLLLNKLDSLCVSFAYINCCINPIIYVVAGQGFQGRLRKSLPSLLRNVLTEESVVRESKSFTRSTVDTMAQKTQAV
Procedure, shortened: (§1)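 C5aR1 variants carried single alanine substitutions or introduced N-glycosylation sites across the N-terminus, ECL1, ECL2 and ECL3. Binding of individual monoclonal antibody clones to each mutant was assessed to map core epitopes. Sulfation of tyrosines 11 and 14 was considered for the site I binders.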

[2] = target: T2, C5aR1 mutants (N-terminus, ECL1, ECL2, ECL3) (Homo sapiens, UniProt P21730, E179A/K279N); test: as above; assay type: binding; settings: E179A
T2 sequence (P21730 with tags, fused parts or gaps E179A/K279N): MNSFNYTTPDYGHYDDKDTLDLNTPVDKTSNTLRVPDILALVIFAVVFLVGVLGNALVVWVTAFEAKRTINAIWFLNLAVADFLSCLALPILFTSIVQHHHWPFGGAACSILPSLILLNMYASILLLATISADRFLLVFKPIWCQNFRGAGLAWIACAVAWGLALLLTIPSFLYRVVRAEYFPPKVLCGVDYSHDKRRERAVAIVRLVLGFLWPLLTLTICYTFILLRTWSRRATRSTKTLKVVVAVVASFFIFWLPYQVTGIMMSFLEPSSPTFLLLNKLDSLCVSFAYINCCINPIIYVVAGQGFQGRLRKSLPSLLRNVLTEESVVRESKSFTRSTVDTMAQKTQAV
Procedure, shortened: as §1

Row | Molecule | binding to C5aR1 mutant [1] | binding to C5aR1 mutant [2]
1 | clone 66: anti-C5aR1 Site I antibody; VH SEQ ID NO: 483, VL SEQ ID NO: 543 (antibody, V domains shown) VH: QVQLQQSDAELVKPGASVKISCKASGYTFIDHAIHWVKQRPEQGLEWIGYISPGNGEIKYNEKFKAKATLTADKSSSAAYMQLNSLTSADSAVYFCKRALFYYTGKYQPMDYWGQGTTVTDSS VL: DIVMTQSQKFMSTTAGDRVSITCKASQNVGSAVVWYQQKPGRSPKLLIYSSSIRYTGVPDRFTGSGSGTDFTLTINSVQSEDLADYFCQQYNSFPLTFGAGTKLEIK | abolishes binding | 
2 | clone 329: anti-C5aR1 Site II antibody; VH SEQ ID NO: 492, VL SEQ ID NO: 552 (antibody, V domains shown) VH: QVQLQQSGAELTKPGASVKLSCKASGYTFTNYWMHWVKQRPGQGLEWIGYLNPSSGYTKYNQKFKDKATLTADKSSSTAYMQLNSLTYEDSAVYYCTRSGGDNYGNPYYFDRWGQGTTVTVSS VL: DVVMTQTPLSLTVSLGDQASISCRSSQSLVHSNGNTYLHWYLQKPGQSPKFLIYKVSNRFSGVPDRFSGSGSGTDFRLKISRVEAEDLGVYFCSQSTLVPLTFGAGTKLEIK |  | did not reduce antibody affinity
